The DeepSol protein solubility set

Experiment: soluble on expression in E. coli; label from the status in PepcDB or PDB records

Sequence | soluble on expression in E. coli
MGSTGETQITPTHISDEEANLFAMQLASASVLPMILKSALELDLLEIIAKAGPGAQISPIEIASQLPTTNPDAPVMLDRMLRLLACYIILTCSVRTQQDGKVQRLYGLATVAKYLVKNEDGVSISALNLMNQDKVLMESWYHLKDAVLDGGIPFNKAYGMTAFEYHGTDPRFNKVFNKGMSDHSTITMKKILETYTGFEGLKSLVDVGGGTGAVINTIVSKYPTIKGINFDLPHVIEDAPSYPGVEHVGGDMFVSIPKADAVFMKWICHDWSDEHCLKFLKNCYEALPDNGKVIVAECILPVAPDSSLATKGVVHIDVIMLAHNPGGKERTQKEFEDLAKGAGFQGFKVHCNAFNTYIMEFLKKV | soluble
MGSTSSLYAAIDLGSNSFHMLVVREVAGSIQTLTRIKRKVRLAAGLNSENDLSNEAMERGWQCLRLFAERLQDIPPSQIRVVATATLRLAVNAGDFIAKAQEILGCPVQVISGEEEARLIYQGVAHTTGGADQRLVVDIGGASTELVTGTGAQTTSLFSLSMGCVTWLERYFADRNLGQENFDAAEKAAREVLRPVADELRYHGWKVCVGASGTVQALQEIMMAQGMDERITLEKLQQLKQRAIHCGRLEELEIDGLTLERALVFPSGLAILIAIFTELNIQCMTLAGGALREGLVYGMLHLAVEQDIRSRTLRNIQRRFMIDIDQAQRVAKVAANFFDQVENEWHLEAISRDLLISACQLHEIGLSVDFKQAPQHAAYLVRNLDLPGFTPAQKKLLATLLLNQTNPVDLSSLHQQNAVPPRVAEQLCRLLRLAIIFASRRRDDLVPEMTLQANHELLTLTLPQGWLTQHPLGKEIIAQENQWQSYVHWPLEVH | not soluble
MGTAAERWERAQMFFDAKDYAVAARILDGLVDEVPEQTGPRLLLARSYYHSAQLGRAEAELRILVERDPVEHYARLMLGRTLQRQGRDDEADSQLRIASALAGLEHHHHHH | not soluble
MGTKQYKDGTYYAEADDFDESGWKDTVTIEVKNGKIVSVDWNAINKDGGDDKDTLSRNGGYKMVEYGGAQAEWHEQAEKVEAYLVEKQDPTDIKYKDNDGHTDAISGATIKVKKFFDLAQKALKDAEKLEHHHHHH | soluble
MGTMRIAFQGTAGAYSEEALLKVFPEAKPVGFPTFHQVFEAVEAGEAELGVVPVENTTAGSINQTYDLLLESDLHVVGEIVHRVEHCLLAPKGTTLKDLHAVKSHPQALAQCDGFLARMRLTPIPVFDTAGAAKELAEHPEPGLAAIASRRAAELYGLEVLAENIEDYPHNYTRFFVIGHKEPPRGQGPYKTSIVFAVRHRPGGLLEALSVFAEAGVNLTKLESRPRRDKPFSYLFYLDLEGHLEDPGPAQALLRLLRRVAFLKVLGSYPAHANGGVSAP | soluble
MGTPKPRILPWLVSQLDLGQLEGVAWVNKSRTRFRIPWKHGLRQDAQQEDFGIFQAWAEATGAYVPGRDKPDLPTWKRNFRSALNRKEGLRLAEDRSKDPHDPHKIYEFVNSGVGDFSQPDTS | soluble
MGTQQKDVTIKSDAPDTLLLEKHADYIASYGSKKDDYEYCMSEYLRMSGVYWGLTVMDLMGQLHRMNKEEILVFIKSCQHECGGVSASIGHDPHLLYTLSAVQILTLYDSIHVINVDKVVAYVQSLQKEDGSFAGDIWGEIDTRFSFCAVATLALLGKLDAINVEKAIEFVLSCMNFDGGFGCRPGSESHAGQIYCCTGFLAITSQLHQVNSDLLGWWLCERQLPSGGLNGRPEKLPDVCYSWWVLASLKIIGRLHWIDREKLRSFILACQDEETGGFADRPGDMVDPFHTLFGIAGLSLLGEEQIKPVSPVFCMPEEVLQRVNVQPELVS | soluble
MGVLPKINIVARQFRKCSMAATSTSTSSSDNSVASTAFVQEHVRQMQNDIMVQLIPQDESGAVENLADLNVTSNLGRMTHYYFQQGGKMLRPTVSLLMGNACNSAANRSISEEYLAMLSTERSGIAAHLSVCQNQYKIGMIAEMIHTASLVHDDVIDEANTRRGSASVNAVWGNKMSVLVGDFILARATQILCSIGKPNIISVMASIIEDLVLGEFMQMSTTPTDATPVDRMKAYIEKTHRKTASLFASSCRSAAILADGSDLKLHEIAFEYGRNLGIAFQLADDLLDFIATADEMGKPVAADLKLGLATAPVLYACEQYPELNTMLLRKFKHDGDAEKAREIVVNSDGMDKTRRLIDSYSQKAVEMASSLPNRNESTEHLIKLAMSQSDRKF | not soluble
MGVRLAVRCFVVDGVLIDTGAKSMENEFTSFFQQQDIDQVVITHFHEDHTGCAAFLQRSMGLPIYMNEPMIEYCRQKADYPLYRKIFWGKRDPFAAKPIGATFSSRNATWDVIPTPGHAIDHVVFLNRETGQLFSGDLYCQEKTKVILREEDIPTIIASLQHVLTYDFGDVFCAHAGYLPLEHHHHHH | not soluble
MGYIVDISKWNGNINWDVAAPQLDFVIARVQDGSNYIDPLYKSYVQAMKTRNIPFGNYAFCRFISIADAKKEAQDFWNRGDKSATVWVADVEVKTMDDMIAGTQAFIDELRRLGAKKVGLYVGHHMYGPFGMANVKSDFVWIPRYGGNKPAYPCDIWQYTETGNVPGIGKCDLNQLIGNKPLSWFTESVPKQENIQAQVSKQNIIQSGAFSPYETPDVMGALTSLKMTATFILQSDGLTYFVTEPTSDTQLNALKSWLDRKGWWYEVK | not soluble
MHAPLVSKDLDYISTANHDQPPRHLGSRFSAEGEFLPEPGNTVVCHLVEGSQTESAIVSTRQRFLDMPEASQLAFTPVSSLHMTVFQGVIESRRALPYWPQTLPLDTPIDAVTDYYRDRLSTFPTLPAFNMRVTGLRPVGMVMKGATAEDDSIVALWRDTFADFFGYRHPDHDTYEFHITLSYIVSWFEPECLPRWQAMLDEELEKLRVAAPVIQMRPPAFCEFKDMNHFKELVVFDKR | soluble
MHAVKPFPLCNLPLISLREVIDYLPTFDIFVLLHTSQKTKKLISSNIRDFVARQEHYKKQDISVRVVAERSYMEVIAISPKIRSTRFKRNDINQALEAAKYLVDHFKCDTDSVWLRITHRKEDETRQIITSVKEINLNITNLQFRHERISSDLFNWLLENCVQDVHIWVLEPQSITVSNWNVFEKVRKYNFQGINFSSHQANMLLKSLKSNNNFVQFRANDIENSLDLSVVFEDTGATAKMDTYRSVVFRPGLTVLKEYKPSKSRFVTENNNGGEMSICITEHAFSFQSN | not soluble
MHEITLCQRALELIEQQAAKHGAKRVTGVWLKIGAFSCVETSSLAFCFDLVCRGSVAEGCKLHLEEQEAECWCETCQQYVTLLTQRVRRCPQCHGDMLQIVADDGLQIRRIEIDQE | soluble
MHEVVTISVSQRANHLTTQFFNIQEGYLQLSKEQQVNDSKIFLNSVVDKVSKTISYAPRALLWDARTGNGSLGTYQYSESQDYHFGNEDKFKEQTVIKTHPRIPKSEYQSSLDAGAPLPCLNRENTMYWSDYSKLIYGPSSFNILRNWYHDTENPNQPDFQNLGERKFDRYSIGYDEFTENYLQEFFDGNLHRELEKCDTLQGFNLVSDMESGWGGFSSALLVELRNELPKKAVFSWGHNEDDPFTDDFPMKRLSKKWLPIISNKLRSTINMMQESDLYFPLYAAPGLTNWETAGKSCRIFDSINATISQSNLEQRKTMDYLTTAITLGYSSRNMVTGMVIGDTDYSFCSRVLPFKNSHKPNSTHIFSKSFIDRGNQTHKHHSEPDSRSKMIEMYTHRYFPSDTIPTEFSNDREFVLELESSEKNRDIFKHWNEFVVRYFKNDSDREELKNELSDYASAYESGWYEDEDSGDDDM | not soluble
MHGADIKAIVFDLDGTLYEETEHFDYYAERVAKRLREADRRRFWDDYRAVLADCHPLRIGSMYDAKEDLIVWLEEGAVRKAFRWSGEPLTKREIETVYKKPVAVDLDRFFSIGDLWWVSSSIGRHYGLTNEDTYAAFLETREWMMGPEFKMNGAPGLAETLVELHEKAALVLMTNSPEPDSEAILWKLRLADVFHHKIFQAAKPMKTAAHLEAIRARFGVDYRQMLCVGDNIGNDIAPARRLGCRTMLVDTYGLAKQGVADFIVASTSACVPVLRRLL | not soluble
MHHHHHHGSTSLYKKAGSETLYIQGMAEFPASLLILNGKSTDNLPLREAIMLLREEGMTIHVRVTWEKGDAARYVEEARKFGVATVIAGGGDGTINEVSTALIQCEGDDIPALGILPLGTANDFATSVGIPEALDKALKLAIAGDAIAIDMAQVNKQTCFINMATGGFGTRITTETPEKLKAALGSVSYIIHGLMRMDTLQPDRCEIRGENFHWQGDALVIGIGNGRQAGGGQQLCPNALINDGLLQLRIFTGDEILPALVSTLKSDEDNPNIIEGASSWFDIQAPHDITFNLDGEPLSGQNFHIEILPAALRCRLPPDCPLLRSTHHHHHH | soluble
MHHHHHHMSWNHQSVEIAVRRTTVPSPNLPPGFDFTDPAIYAERLPVAEFAELRSAAPIWWNGQDPGKGGGFHDGGFWAITKLNDVKEISRHSDVFSSYENGVIPRFKNDIAREDIEVQRFVMLNMDAPHHTRLRKIISRGFTPRAVGRLHDELQERAQKIAAEAAAAGSGDFVEQVSCELPLQAIAGLLGVPQEDRGKLFHWSNEMTGNEDPEYAHIDPKASSAELIGYAMKMAEEKAKNPADDIVTQLIQADIDGEKLSDDEFGFFVVMLAVAGNETTRNSITQGMMAFAEHPDQWELYKKVRPETAADEIVRWATPVTAFQRTALRDYELSGVQIKKGQRVVMFYRSANFDEEVFQDPFTFNILRNPNPHVGFGGTGAHYCIGANLARMTINLIFNAVADHMPDLKPISAPERLRSGWLNGIKHWQVDYTGRCPVAH | soluble
MHHHHHHSSGRENLYFQGGSLLELQKKYHLKGAIGQGSYGVVRVAIENQTRAIRAIKIMNKNKIRQINPKDVERIKTEVRLMKKLHHPNIARLYEVYEDEQYICLVMELCHGGHLLDKLNVFIDDSTGKCAMDVVKTQICPCPECNEEAINGSIHGFRESLDFVQREKLISNIMRQIFSALHYLHNQGICHRDIKPENFLFSTNKSFEIKLVDFGLSKEFYKLNNGEYYGMTTKAGTPYFVAPEVLNTTNESYGPKCDAWSAGVLLHLLLMGAVPFPGVNDADTISQVLNKKLCFENPNYNVLSPLARDLLSNLLNRNVDERFDAMRALQHPWISQFSDKIYKMS | soluble
MHHHHHHSSGVDLGTENLYFQSNAMKNIEKLEQSLTYEFKDKNLLIHALTHKSFKKSYNNERLEFLGDAVLDLVVGEYLFHKFAKDAEGDLSKLRAALVNEKSFAKIANSLNLGDFILMSVAEENNGGKEKPSILSDALEAIIGAIHLEAGFEFAKTIALRLIEKNFPQIDAKILIKDYKTKLQEITQGKIGQTPQYETVRAFGPDHLKQFEIALMLDGKELARAIAGSKKEAQQMAAKIALEKLGAL | soluble
MHHHHHHSSGVDLGTENLYFQSNAMNFKLNNTLSNEINTLIIGIPEHLNQLERISFNHIDITESLERLKHQHIIGSKVGKIYTTAFDVQDQTYRLITVGLGNLKTRSYQDMLKIWGHLFQYIKSEHIEDTYLLMDSFISKYDQLSDVLMACGIQSERATYEFDHYKSSKKAPFKTNLNLISESLIELDFIHEGISIGQSINLARDFSNMPPNVLTPQTFAEDIVNHFKNTKVKVDVKDYDTLVSEGFGLLQAVGKGSKHKPRLVTITYNGKDKDEAPIALVGKGITYDSGGYSIKTKNGMATMKFDMCGAANVVGIIEAASRLQLPVNIVGVLACAENMINEASMKPDDVFTALSGETVEVMNTDAEGRLVLADAVFYANQYQPSVIMDFATLTGAAIVALGDDKAAAFESNSKVILNDILQISSEVDEMVFELPITATERASIKHSDIADLVNHTNGQGKALFAASFVTHFSGQTPHIHFDIAGPATTNKASYNGPKGPTGFMIPTIVQWLKQQ | soluble
